From PMC5453099, “Vascular Endothelial Growth Factor (VEGF) Detection Using an Aptamer and PNA-Based Bound/Free Separation System”

Target: VEGF (vascular endothelial growth factor) (UniProt P15692-4 27-191)
Experiment: bound/free separation: fluorescence of supernatant after capture of free aptamer on PNA beads; 10 nM aptamer, CaPNA4 beads; signal rises with 5-50 nM VEGF; detection limit 25 nM (not a Kd); TBS: 10 mM Tris-HCl pH 7.0, 100 mM NaCl; room temperature; protein and aptamer 10 min, then CaPNA beads 5 min (beads blocked with 4% skimmed milk and 4 mM biotin)
Settings: protein: commercial; chain copies: 2; label: 5'-fluorescein; predicted three-way junction with stem-loops

Sequence of VEGF (vascular endothelial growth factor) (P15692 other isoform, or with tags, fused parts or gaps): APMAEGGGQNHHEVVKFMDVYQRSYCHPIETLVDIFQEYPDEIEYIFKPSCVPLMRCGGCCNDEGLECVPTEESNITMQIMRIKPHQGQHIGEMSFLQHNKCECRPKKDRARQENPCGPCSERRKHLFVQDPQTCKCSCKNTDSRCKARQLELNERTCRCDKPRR

B1: VEGF aptamer (58-mer) (structured_DNA)
DNA: CTGGCCAGGTACCAAAAGATGATCTTGGGCCCGTCCGAATGGTGGGTGTTCTGGCCAG
B1: binds.
